Here are results for six molecules from patent US9688743B2, “Optical biosensors” (Carnegie Mellon University, priority 2007, dated 2017).

Data set [1] can be described thus: Fluorogen binding affinity to yeast surface displayed FBPs (TO1-2p). On the procedure: Cell surface KD values were determined on Prism Graphpad Prism 4.0 software by non-linear regression analysis using a one-site binding algorithm for saturation binding: Y═Bmax*X═(KD+X) where X is the concentration of fluorogen. Determination of Fluorogen Binding Affinity to Soluble FBPs

The nature of data set [2]: Spectral characterization of yeast surface displayed FBPs (TO1-2p). Format: physicochemical. The following applies: cell surface; for excitation maximum: free dye absorbance 504 nm. On the procedure: 10^6 cells in 200 μl yeast buffer were assayed with 100-1000 nM MG-2p or TO1-2p. Spectra were corrected by subtraction of fluorescence of control cells not expressing scFvs.

Data set [3] can be described thus: Fluorogen binding affinity to soluble FBPs (MG-2p). Particulars: soluble versus yeast surface displayed FBP. On the procedure: (§1) Binding affinity to soluble scFvs was determined by monitoring fluorogenic signal under conditions of ligand depletion using a homogenous 96 well microplate assay similar to above. 1 nM HL1.0.1-TO1, 10 nM L5-MG and 100 nM HL4-MG were each assayed with a 0.1 to 1000 nM range of fluorogen. Fluorescence of each FBP+dye sample was corrected by subtracting the fluorescence of a dye only sample. KD values were determined by non-linear regression using Graphpad Prism 4.0 and a ligand depletion algorithm. Y═(X+KD+R−√{square root over ((−X−KD−R)^2−4*X*R)})÷2 where X is the concentration of fluorogen, and R is the concentration of FBP/fluorogencomplex at the observed or extrapolated plateau at maximum fluorescence. Determination of Quantum Yields

A short description of data set [4]: Fluorogenic enhancement of purified FBP (MG-2p). Format: biochemical. Particulars: HL4-MG/MG-2p complex. As to the method:
(§2) Fluorogenic enhancement of HL4-MG, L5-MG and HL1.0.1-TO1 was measured in 96 well microplates on a Tecan Safire2 reader by comparison of the fluorescence of 500 nM free fluorogen with the fluorescence of a mixture of 500 nM fluorogen and 2 μM respective FBP. After a 1 hour incubation to allow complex formation, fluorescence was measured at the excitation and emission maxima of the fluorogen/FBP complexes. Fluorescence of yeast PBS buffer was subtracted from all samples. Fluorescence readings were stable for at least 16 hours.
(§3) Extended gain settings were used to increase numerical accuracy. For HL4-MG and L5MG, the differences in fluorescence between complexes and free dye exceeded the extended gain range of the instrument, so intermediate concentrations of Cy5 were also measured to allow interpolation between the extreme values. Two independent experiments, each with triplicate measurements, were carried out for each of the 3 FBPS; standard deviations for averaged values of FBPS, free fluorogen or PBS were less than 5%. The fold-enhancement values for HL4-MG and L5-MG were respectively multiplied by 1.35 and 1.20 to correct for partial complexation.

Data set [5] is described as follows: Quantum yield and absorbance of FBP/MG-2p complex. Format: physicochemical. On the procedure:
(§4) FIG. 15 provides graphs illustrating absorbance of fluorogens and FBP/fluorogen complexes. Shown are samples used in quantum yield determinations. The absorbance of FBP/fluorogen complexes is obtained on a dual beam PerkinElmer Lambda 45 spectrophotometer using an equal concentration of FBP without fluorogen as the reference.
(§5) Quantum yields were determined by comparing integrated spectra of FBP/fluorogen complexes with those of reference dyes. Corrected emission spectra were taken at concentrations of FBP/fluorogen complex and reference dyes giving similar absorbances at the excitation wavelength, and the intensity integral computed. Provisional quantum yields were calculated by the relation:
(§6) [formula] where (phi is the quantum yield, I is the integrated intensity, A is the absorbance, η is the refractive index, and R designates the reference dye. Provisional quantum yields were adjusted to 1:1 complexation by using the solution KD of the complex to quantify the proportional occupancy at these concentrations (using Graphpad Prism 4.0 and the above ligand depletion algorithm).
A cyanic dye, Cy5.18 in PBS and Di-S—C2-(5) in MeOH were used as reference fluorophores for the determination of HL4-MG/MG-2p and L5-MG/MG-2p quantum yields. 2 μM scFv and 440 nM MG-2p were employed; emission spectra of respective complexes were taken in duplicate. […] These differences in absorbance magnitude underrepresent actual differences because of incomplete complexation at these concentrations. HL4MG/MG-2p and L5-MG/MG-2p quantum yields were respectively multiplied by 1.35 and 1.20 to correct for incomplete complexation. Fluorescein in 0.1 N NaOH and Rhodamine-6-G in MeOH were used as reference fluorophores for the determination of the quantum yield of HL1.0.1-TO1/TO12p. At the employed concentrations of 2 μM scFv and 520 nM TO1-2p, virtually complete complexation is expected, and no correction was used. Only slight changes in absorbance magnitude were noted.

A short description of data set [6]: Fluorogen binding affinity to soluble FBPs (TO1-2p). The following applies: soluble FBP, in words. As to the method: as §1
Data set [7] in a line: Fluorogenic enhancement of purified FBP (TO1-2p). Format: biochemical. Particulars: direct measurement. On the procedure: as §2, §3
Data set [8] is described as follows: Quantum yield and absorbance of FBP/TO1-2p complex. Format: physicochemical. As to the method: as §4, §5, §6
A cyanic dye, Cy5.18 in PBS and Di-S—C2-(5) in MeOH were used as reference fluorophores for the determination of HL4-MG/MG-2p and L5-MG/MG-2p quantum yields. […] These differences in absorbance magnitude underrepresent actual differences because of incomplete complexation at these concentrations. […]

Data set [9] is described as follows: Cell surface complementation, flow cytometry of TO1-2p fluorescence. Format: cell-based. The following applies: 1 μM TO1-2P, induced JAR200 yeast, emission at 530. As to the method: In the following experiments three classes of yeast cells were generated by molecular biology methods known in the art. One class of yeast expressed only the heavy chain of the scFv on the surface. A second class expressed only the light chain of the scFv on its surface. The third class expressed both the heavy and light chains on the surface. When the fluorescent reporter TO1 was added independently to solutions containing the three classes of yeast cells, only the third class that expressed both heavy and light chains at a high surface density produced a fluorescence increase, as shown below. Specifically, two vectors, pPNL6 and pPNL6URA3 were prepared, where the TRP1 gene of pPNL6 was replaced with the URA3 gene of S. cerevisiae. This approach allowed selection for both plasmids in a single cell. Fragments carrying scFv1, scFv1 HO (heavy only chain), or scFv1 LO (light only chain) were cloned into each of the two vectors. […]
In the first approach, flow cytometry was used to assay cellular fluorescence of the three classes of yeast in the presence and absence of TO 1. The population of induced cells was analyzed by measuring fluorescence emitted at 685 from a signal caused by protein labeled by anti-C-myc Alexa 647. […] For cells that expressed full length fragments the TO1-2p fluorescence was observed as emission at 530.
In general terms: In flow cytometry, cells or beads pass a laser one at a time.

Data set [10] is described as follows: Cell surface complementation, fluorescence spectrometer on cell suspensions. Format: cell-based, yeast. Particulars: for Fluorescence: 1 μM TO1-2P, excitation 506 nm, emission 610 nm, corrected for buffer+dye and no-dye samples. On the procedure: In the following experiments three classes of yeast cells were generated by molecular biology methods known in the art. One class of yeast expressed only the heavy chain of the scFv on the surface. A second class expressed only the light chain of the scFv on its surface. The third class expressed both the heavy and light chains on the surface. When the fluorescent reporter TO1 was added independently to solutions containing the three classes of yeast cells, only the third class that expressed both heavy and light chains at a high surface density produced a fluorescence increase, as shown below. Specifically, two vectors, pPNL6 and pPNL6URA3 were prepared, where the TRP1 gene of pPNL6 was replaced with the URA3 gene of S. cerevisiae. This approach allowed selection for both plasmids in a single cell. Fragments carrying scFv1, scFv1 HO (heavy only chain), or scFv1 LO (light only chain) were cloned into each of the two vectors.
JAR200 yeast cells were transformed with each single plasmid as well as both scFv1 HO (PNL6)+scFv1 LO (PNL6URA3) or both scFv1 HO (PNL6URA3)+scFv1 LO (PNL6). Analysis by FACS and TECAN followed induction of the cells. In both cases, 1 μM TO1-2P was used.
In the second approach, a fluorescence spectrometer was used to quantify the fluorescence from suspensions of cells. The fluorescence excitation wavelength was 506 nm and the emission wavelength was 610 nm. Values presented below are corrected from raw data by subtracting out the values for (buffer+dye) and induced (no dye) samples. They were then corrected for the per cent of the population that was induced, as determined by the flow cytometry analysis.

B1: HL2-TO1: fluorogen binding scFv, SEQ ID NO: 5 (protein)
scFv: QVQLQQGGAGLLKPSETLSLTCGVYGGSFSGYYWSWIRQSPGKGLEWIGEINHSGSANYNPSVKSRVTISVDTSKNQFSLQLSSVTAADTAVYYCARDRAVLTGEGWYFDLWGRGTLVTVSSGILGSGGGGSGGGGSGGGGSSYELTQPPSVSVSPGQTASITCSGDKLGDKYTCWYQQKPGQSPVLVLYEDTKRPSGIPERFSGSNSGNTATLTISRVEAGDEADYYCQLWDSSSDHYVFGSGTKLTVL
modifications: scFv sequence
With B1, in [1] (yeast surface displayed FBP, TO1-2p, in words), the dissociation constants result was “high nanomolar range”. In data set [2], this molecule displayed an emission maxima of 550 nm and an excitation maximum of 515 nm.

B2: HL4-MG: malachite green binding scFv, SEQ ID NO: 11 (protein)
scFv: QVQLVESEGGLVQPGGSLRLSCAASGFTFSSYEMNWVRQAPGKGLEWVSRIDGDGSSTNYADSVKGRFTISRDNAKSTLYLQMNSLRAEDTAVYYCTRARYFGSVSPYGMDVWGQGTTVTVSSGILGSGGGGSGGGGSGGGGSDIRVTQSPSSVSASVGDRVTISCRASQGIATWLGWYQQKPGKPPQLLIYSASTLQTGVPSRFSGSGSGTDFTLTISSLQPEDVATYYCQEGSTFPLTFGGGTKVDIKSGILEQKLISEEDL
modifications: scFv sequence, (GILEQKLISEEDL at end of sequence is derived from a vector)
Consider B2, for which, in data set [3], the “reduced affinity for MG-2p in solution as compared to surface display” value is given as 185 fold. Further, in [4], the “fluorescence enhancement as compared to free fluorogen” value is on record as “about 18,000 fold”. In addition, in data set [5], the “absorbance of FBP/fluorogen relative to free MG-2p” value is listed as “more than 1.4 fold”, the extinction coefficient entry is listed as “about 105,000 M^−1 cm^−1” and the quantum yield is 0.17.

B3: HL1.0.1-TO1: affinity matured fluorogen binding scFv, SEQ ID NO: 7 (protein)
scFv: QVQLVESEAEVKKPGSSVKVSCKASGGTFSSYAISWVRQAPGQGLEWMGGTIPIFGTADYAQEFQGRVTITTDESTSTAYMELSGLRSEDTAVYYCVLLGTTMVTGHYFDYWGQGTLVTVSSGILGSGGGGSGGGGSGGGGSNFMLTQPPSASGTPGQSVTISCSGSGSNIGNNKVNWYQQLPGTAPKLLIYSNNQRPSGVPDRFSGSKSGTSASLAISGLQSEDEADYYCAAWDDGLSGYVFGTGTKLTVL
modifications: scFv sequence
Take B3: in [1] (yeast cell surface displayed FBP, fluorogen TO1-2p), the equilibrium dissociation constant (Kd) (as a rule, the equilibrium constant for the complex coming apart) was ~3 nM. Moreover, in data set [6], the KD in solution entry is “very similar to that observed on the cell surface”. Besides, the “fluorescence increase of TO1-2p upon binding” value in data set [7] was “about 2,600 fold”. Also, in data set [8], the extinction coefficient is on record as 60,000 M^−1 cm^−1 and the quantum yield was determined as 0.47. In [2], this molecule gave an emission maxima of 530 nm and an excitation maximum of 509 nm.

B4: HO PNL6: scFv1 heavy chain only, vector pPNL6, displayed on yeast (antibody, V domains shown)
VH: QVQLVESEAEVKKPGSSVKVSCKASGGTFSSYAISWVRQAPGQGLEWMGGIIPIFGTANYAQKFQGRVTITADESTSTAYMELSSLRSEDTAVYYCVLLDTTMVTGYYFDYWGQGTLVTVSS
Take B4: the “MEAN 530 SIGNAL” value in data set [9] is 88. Besides, in [10], the Fluorescence is reported as 135. In addition, the “F/ (% Pop IND)” value in data set [10] (fluorescence corrected for per cent of population induced) is recorded as 160.

B5: HO PNL6URA3: scFv1 heavy chain only, vector pPNL6URA3, displayed on yeast (antibody, V domains shown)
VH: B4 VH
Turning to B5, the “MEAN 530 SIGNAL” value in data set [9] came out at 82. In addition, the Fluorescence in data set [10] is −605.

B6: L5-MG: malachite green binding light chain only FBP, SEQ ID NO: 13 (antibody)
VL: SASTGSFDSWGQGTLVTVSSGILGSGGGGSGGGGSGGGGSQAVVTQEPSVTVSPGGTVILTCGSSTGAVTSGHYANWFQQKPGQAPRALIFETDKKYSWTPGRFSGSLLGAKAALTISDAQPEDEAEYYCLLSDVDGYLFGGGTQLTVLSGILEQKLISEEDL
modifications: scFv sequence, (GILEQKLISEEDL at end of sequence is derived from a vector)
Consider B6, for which the “reduced affinity for MG-2p in solution as compared to surface display” value in data set [3] is recorded as 265 fold.
